We go through 26 molecules from patent publication US20100272750A1.

B1: HPV16.E1.274 (peptide)
peptide: VVLLLVRYK
modifications: not checked
B2: HPV45.E2.322 (peptide)
peptide: STWHWTGCNK
modifications: not checked
B3: HPV16.E1.497 (peptide)
peptide: SVICFVNSK
modifications: not checked
B4: HPV31.E1.253 (peptide)
peptide: MVMLMLVRFK
modifications: not checked
B5: HPV31.E1.294 (peptide)
peptide: STAAALYWYR
modifications: not checked
B6: HPV45.E1.399 (peptide)
peptide: AVMCRHYKR
modifications: not checked
B7: HPV31.E6.72 (peptide)
peptide: KVSEFRWYRY
modifications: not checked
B8: HPV16.E1.314 (peptide)
peptide: STAAALYWYK
modifications: not checked
B9: HPV16.E1.406 (peptide)
peptide: ATMCRHYKR
modifications: not checked
B10: HPV45.E2.332 (peptide)
peptide: NTGILTVTY
modifications: not checked
B11: HPV31.E6.15 (peptide)
peptide: LSSALEIPY
modifications: not checked
B12: HPV16/31.E1.357 (peptide)
peptide: LSQMVQWAY
modifications: not checked
B13: HPV18/31.E1.11 (peptide)
peptide: GTGCNGWFY
modifications: not checked
B14: HPV31.E2.205 (peptide)
peptide: ISFAGIVTK
modifications: not checked
B15: HPV18.E2.136 (peptide)
peptide: VAWDSVYYM
modifications: not checked
B16: HPV31.E2.131 (peptide)
peptide: YTNWKFIYL
modifications: not checked
B17: HPV31.E5.15 (peptide)
peptide: FLLCFCVLL
modifications: not checked
B18: HPV31.E5.66 (peptide)
peptide: FIYIPLFVI
modifications: not checked
B19: HPV18.E5.51 (peptide)
peptide: TVYVFCFLL
modifications: not checked
B20: HPV45.E2.137 (peptide)
peptide: YVVWDSIYYI
modifications: not checked
B21: HPV45.E1.252 (peptide)
peptide: TLYAHIQCL
modifications: not checked
B22: HPV16.E1.259 (peptide)
peptide: CLYLHIQSL
modifications: not checked
B23: HPV16.E5.66 (peptide)
peptide: FVYIPLFLI
modifications: not checked
B24: HPV16.E7.85.V9 (peptide)
peptide: GTLGIVCPV
modifications: not checked
B25: HPV16.E7.13 HTL epitope (peptide)
peptide: LDLQPETTDLYCYEQ
modifications: not checked
B26: HPV31.E1.15 HTL epitope (peptide)
peptide: NGWFYVEAVIDRQTG
modifications: not checked

For one assay, the target named is HLA A6801 (human). In words: 125I-probe competition, purified HLA.
For B1, the IC50 stood at 76 nM.
Same read-out and setting: the result for B2 reads 18 nM; that for B3, 5.4 nM; that for B4, 10 nM.
For the molecule B5, the IC50 amounted to 12 nM.
In turn, B6 registered an IC50 of 29 nM.
B7 had an IC50 of 192 nM.
Still for that read-out and setting: the result for B8 reads 6 nM; that for B9, 35 nM.

A further assay deals with HLA A0101 (human). In words: 125I-probe competition, purified HLA.
As for B10, the IC50 came out at 337 nM.
On the same count and under the same terms, to B11 belongs 35 nM; to B12, 21 nM.
As for B13, the IC50 came out at 136 nM.

Another assay deals with HLA A3301 (human). Nature of the assay: 125I-probe competition, purified HLA.
As for B1, the IC50 came to 6.1 nM.
B2 yielded an IC50 of 428 nM.
As for B3, the IC50 worked out at 51 nM.
On the same count and under the same terms, the result for B4 reads 20 nM; that for B14, 4370 nM; that for B5, 47 nM.
Same read-out and setting: to B6 belongs 24 nM.
Still for that read-out and setting: to B7 belongs 338 nM.
For B8, the IC50 was 128 nM.
The same measure, in the same setting: the result for B9 reads 17 nM.

The target in the next assay is HLA A6802 (human). Nature of the assay: 125I-probe competition, purified HLA.
B15 showed an IC50 of 5150 nM.
The same measure, in the same setting: the result for B16 reads 146 nM; that for B17, 237 nM.
Molecule B18 had an IC50 of 157 nM.
Molecule B19 showed an IC50 of 41 nM.
Same read-out and setting: the result for B20 reads 30 nM; that for B21, 1610 nM; that for B22, 1780 nM.
B23 came in with an IC50 of 251 nM.
With B24, the IC50 was found to be 32 nM.

The next assay has as its target HLA A0301 (human). Nature of the assay: 125I-probe competition, purified HLA.
As for B1, the IC50 was determined as 6.3 nM.
On the same count and under the same terms, the result for B2 reads 14 nM; that for B3, 109 nM.
Same read-out and setting: to B4 belongs 10 nM; to B14, 17 nM; to B5, 198 nM.
On the same count and under the same terms, the result for B6 reads 311 nM.
In turn, B7 had an IC50 of 213 nM.
Consider B8, for which the IC50 was determined as 5 nM.
Same read-out and setting: to B9 belongs 90 nM.

Another assay has as its target HLA A3002 (human). Nature of the assay: 125I-probe competition, purified HLA.
For the molecule B10, the IC50 amounted to 8720 nM.
On the same count and under the same terms, the result for B11 reads 175 nM; that for B12, 0.93 nM.
In turn, B13 yielded an IC50 of 9.1 nM.

In another assay the target is HLA A3101 (human). In words: 125I-probe competition, purified HLA.
For the molecule B1, the IC50 is 0.1 nM.
Same read-out and setting: to B2 belongs 54 nM.
Still for that read-out and setting: to B3 belongs 25 nM; to B14, 115 nM.
B5 registered an IC50 of 5.6 nM.
Still for that read-out and setting: to B6 belongs 52 nM; to B7, 3 nM; to B8, 35 nM.
The same measure, in the same setting: to B9 belongs 10 nM.

For the next assay, the target named is HLA A0202 (human). Nature of the assay: 125I-probe competition, purified HLA.
The molecule B15 came in with an IC50 of 603 nM.
The same measure, in the same setting: to B16 belongs 14 nM; to B17, 13 nM; to B18, 97 nM.
Same read-out and setting: to B19 belongs 587 nM; to B20, 27 nM; to B21, 4.9 nM.
Still for that read-out and setting: the result for B22 reads 45 nM; that for B23, 323 nM; that for B24, 49 nM.

The next assay deals with HLA A0206 (human). Nature of the assay: 125I-probe competition, purified HLA.
For the molecule B15, the IC50 turned out to be 790 nM.
B16 registered an IC50 of 84 nM.
On to B17, for which the IC50 was found to be 2.6 nM.
Same read-out and setting: to B18 belongs 8.1 nM; to B19, 26 nM.
On the same count and under the same terms, to B20 belongs 20 nM; to B21, 417 nM.
Same read-out and setting: to B22 belongs 100 nM.
Regarding B23, the IC50 amounted to 59 nM.
Still for that read-out and setting: to B24 belongs 33 nM.

The next assay has as its target HLA A0203 (human). Nature of the assay: 125I-probe competition, purified HLA.
The molecule B15 registered an IC50 of 1330 nM.
On the same count and under the same terms, the result for B16 reads 31 nM; that for B17, 34 nM; that for B18, 47 nM.
The same measure, in the same setting: the result for B19 reads 769 nM; that for B20, 248 nM.
Same read-out and setting: the result for B21 reads 6.2 nM.
As for B22, the IC50 was found to be 21 nM.
Molecule B23 came in with an IC50 of 63 nM.
On the same count and under the same terms, to B24 belongs 68 nM.

The next assay deals with HLA A2601 (human). Nature of the assay: 125I-probe competition, purified HLA.
Molecule B10 gave an IC50 of 3150 nM.
The same measure, in the same setting: to B11 belongs 4110 nM.
The molecule B12 had an IC50 of 6450 nM.
Same read-out and setting: the result for B13 reads 3080 nM.

A further assay deals with HLA A0201 (human). Nature of the assay: 125I-probe competition, purified HLA.
For B15, the IC50 was determined as 172 nM.
The same measure, in the same setting: to B16 belongs 69 nM.
Same read-out and setting: the result for B17 reads 9.6 nM; that for B18, 26 nM.
Same read-out and setting: the result for B19 reads 175 nM.
On to B20, for which the IC50 was 77 nM.
Same read-out and setting: to B21 belongs 34 nM; to B22, 73 nM.
The same measure, in the same setting: the result for B23 reads 206 nM; that for B24, 20 nM.

For another assay, the target named is HLA A1101 (human). Nature of the assay: 125I-probe competition, purified HLA.
B1 registered an IC50 of 4.1 nM.
The same measure, in the same setting: to B2 belongs 2.8 nM; to B3, 2.2 nM; to B14, 1.6 nM.
The molecule B5 returned a half-inhibitory concentration (IC50) of 10 nM.
On the same count and under the same terms, the result for B6 reads 38 nM.
Same read-out and setting: the result for B7 reads 25 nM; that for B8, 2 nM.
Same read-out and setting: to B9 belongs 14 nM.

In another assay the target is HLA A2902 (human). In words: 125I-probe competition, purified HLA.
B10 displayed a concentration for half-maximal inhibition (IC50) of 1400 nM.
Same read-out and setting: the result for B11 reads 261 nM; that for B12, 122 nM; that for B13, 116 nM.

A further assay has as its target HLA DRB1*0401 (human). In words: competition with 125I probe peptide, purified HLA.
In turn, B25 displayed an IC50 of 1900 nM.
B26 had an IC50 of 845 nM.

The next assay deals with HLA DRB4*0101 (human). In words: competition with 125I probe peptide, purified HLA.
B25 registered an IC50 of 17 nM.
As for B26, the IC50 was 627 nM.

For the next assay, the target named is HLA DRB5*0101 (human). Nature of the assay: competition with 125I probe peptide, purified HLA.
B26 displayed an IC50 of 1200 nM.

In another assay the target is HLA DRB1*0301 (human). Nature of the assay: competition with 125I probe peptide, purified HLA.
Take B25: the IC50 is 590 nM.
Molecule B26 registered an IC50 of 2800 nM.

The target of another assay is HLA DRB1*0405 (human). Nature of the assay: competition with 125I probe peptide, purified HLA.
B26 gave an IC50 of 178 nM.

Another assay concerns the target HLA DRB1*0101 (human). In words: competition with 125I probe peptide, purified HLA.
In turn, B26 registered an IC50 of 1860 nM.

A further assay addresses HLA DRB1*0701 (human). In words: competition with 125I probe peptide, purified HLA.
The molecule B26 returned an IC50 of 1460 nM.

For a further assay, the target named is HLA DRB1*0901 (human). Nature of the assay: competition with 125I probe peptide, purified HLA.
Turning to B26, the IC50 is 3670 nM.

The next assay addresses HLA DRB1*0404 (human). Nature of the assay: competition with 125I probe peptide, purified HLA.
For the molecule B26, the IC50 came out at 18800 nM.

As a reminder, the IC50 is the concentration at which inhibition is half-maximal.
